# From paper PMC3652601, “Structure of a dimeric crenarchaeal Cas6 enzyme with an atypical active site for CRISPR RNA processing” (Biochemical Journal, 2013)
# Numbering of substitutions follows the chain as printed. Names and notes keep the numbering of the source.
# B1: selenomethionine-labelled methylated SsoCas6 (enzyme, Sulfolobus solfataricus)
# chain: PLIFKIGYNVIPLQDVILPTPSSKVLKYLIQSGKLLPSLNNLITSRDKYKPIFISHLGLNQRRIFQTNGNLKTISRGSKLSSTIAFSTQVNVLPELDEGVFETIYGKFHITIESVEIVEVEKLKEEVEKHMNDNIRVRFISPTLLSSKVLLPPSLSERYKRVNAGYSTLPSVGLIVAYAYNVYCNLIGKKEVEVRAFKFGVISNALSRIIGYDLHPVTIVIGEDSKGNLRKARGVMGWIEFDIPDEKLKRRALRYLLASSYLGIGRSRGIGFGEIKLEFIKREENH
# modifications: (L)-selenomethionine derivative; surface lysine residues reductively methylated
# notes: Cas6 paralogue Sso1437 of Sulfolobus solfataricus; residues 43-50 and 90-93 disordered in the crystal; Same construct as m1, labelled with selenomethionine and methylated for crystallography; also called (L)-selenomethionine derivative of SsoCas6; not shown: His6, N-terminal, cleaved
# B2: SsoCas6 K28H variant (enzyme, Sulfolobus solfataricus)
# chain: B1 chain with K27H
# notes: Cas6 paralogue Sso1437 of Sulfolobus solfataricus with K28H; Used in the calibrated gel filtration in place of the wild type; source: E. coli, purified according to the same protocol as the wild type; not shown: His6, N-terminal, cleaved
# B3: Sulfolobus solfataricus Cas6 (Sso1437), wild type (enzyme)
# chain: B1 chain
# notes: Cas6 paralogue Sso1437 of Sulfolobus solfataricus, gene amplified by PCR from genomic DNA; expected molecular mass of the monomer 33 kDa; Cloned into pET151-TOPO; also called SsoCas6; wild-type (WT) enzyme; source: E. coli C43(DE3), purified (Ni-NTA, TEV cleavage, Superdex 75 gel filtration); not shown: His6, N-terminal, cleaved
# Key:
# [1] = target: the molecule itself; assay: crystal structure; selenomethionine-labelled methylated protein; 0.05 M bicine pH 9.1, 28% PEG 3350; SAD, 2.8 Å; four monomers in the asymmetric unit; interface analysed with PDBePISA
# [2] = target: the molecule itself; assay: SEC; calibrated gel filtration, HiLoad 26/600 Superdex 200, 20 mM Tris/HCl pH 7.5, 1 M NaCl; calibrated with Bio-Rad standards
Protein,binding result [1],stoichiometry N [2]
B1,binds,–
B2,–,2
B3,–,2
